# B1: GST-ZNHIT2ΔC (domain or fragment)
# chain: MEPAGPCGFCPAGEVQPARYTCPRCNAPYCSLRCYRTHGTCAENFYRDQVLGELRGCSAPPSRLASALRRLRQQRETEDEPGEAGLSSGPAPGGLSGLWERLAPGEKAAFERLLSRGEAGRLLPPWRPWWWNRGAGPQLLEELDNAPGSDAAELELAPARTPPDSVKDASAAEPAAAERVLGDVPGACTPVVPTRIPAIVSLSRGPVSPLVRFQLPNVLFAYAHTLALYHGGDDALLSDFCATLLGVSGALGAQQVFASAEEALQAAAHVLEAGEHPPGPLGTRGAMHEVARILLGEGPTNQKGYTLAALGDLAQTLGRARKQAVAREERDHLYRARKKCQFLLAWTNENEAALTPLALDCARAHQAHAVVAEEV
# B2: ZNHIT2ΔC (domain or fragment)
# chain: B1 chain
# B3: Strep II-ECD (natural protein)
# chain: MEETMKLATMEDTVEYCLFLIPDESRDSDKHKEILQKYIERIITRFAPMLVPYIWQNQPFNLKYKPGKGGVPAHMFGVTKFGDNIEDEWFIVYVIKQITKEFPELVARIEDNDGEFLLIEAADFLPKWLDPENSTNRVFFCHGELCIIPAPRKSGAESWLPTTPPTIPQALNIITAHSEKILASESIRAAVNRRIRGYPEKIQASLHRAHCFLPAGIVAVLKQRPRLVAAAVQAFYLRDPIDLRACRVFKTFLPETRIMTSVTFTKCLYAQLVQQRFVPDRRSGYRLPPPSDPQYRAHELGMKLAHGFEILCSKCSPHFSDCKKSLVTASPLWASFLESLKKNDYFKGLIEGSAQYRERLEMAENYFQLSVDWPESSLAMSPGEEILTLLQTIPFDIEDLKKEAANLPPEDDDQWLDLSPDQLDQLLQEAVGKKESESVSKEEKEQNYDLTEVSESMKAFISKVSTHKGAELPREPSEAPITFDADSFLNYFDKILGPRPNESDSDDLDDEDFECLDSDDDLDFETHEPGEEASLKGTLDNLKSYMAQMDQELAHTCISKSFTTRNQVEPVSQTTDNNSDEEDSGTGESVMAPVDVDLNLVSNILESYSSQAGLAGPASNLLQSMGVQLPDNTDHRPTSKPTKN
# B4: AAR2-His (natural protein)
# chain: MAAVQMDPELAKRLFFEGATVVILNMPKGTEFGIDYNSWEVGPKFRGVKMIPPGIHFLHYSSVDKANPKEVGPRMGFFLSLHQRGLTVLRWSTLREEVDLSPAPESEVEAMRANLQELDQFLGPYPYATLKKWISLTNFISEATVEKLQPENRQICAFSDVLPVLSMKHTKDRVGQNLPRCGIECKSYQEGLARLPEMKPRAGTEIRFSELPTQMFPEGATPAEITKHSMDLSYALETVLNKQFPSSPQDVLGELQFAFVCFLLGNVYEAFEHWKRLLNLLCRSEAAMMKHHTLYINLISILYHQLGEIPADFFVDIVSQDNFLTSTLQVFFSSACSIAVDATLRKKAEKFQAHLTKKFRWDFAAEPEDCAPVVVELPEGIEMG
# B5: 6xHis-AAR2-Strep II (natural protein)
# chain: B4 chain
# B6: GST-ZNHIT2-C (domain or fragment)
# chain: GPVSPLVRFQLPNVLFAYAHTLALYHGGDDALLSDFCATLLGVSGALGAQQVFASAEEALQAAAHVLEAGEHPPGPLGTRGAMHEVARILLGEGPTNQKGYTLAALGDLAQTLGRARKQAVAREERDHLYRARKKCQFLLAWTNENEAALTPLALDCARAHQAHAVVAEEV
# How the values were obtained:
# RUVBL1–RUVBL2 complex = RUVBL1–RUVBL2 complex (human, UniProt Q9Y265;Q9Y230); experiment: pull-down
# RUVBL2 [1] = target: T1, RUVBL2 (human, UniProt Q9Y230 1-463); experiment: pull-down
# RUVBL1 [2] = target: T2, RUVBL1 (human, UniProt Q9Y265 1-456); experiment: pull-down
# [3] = target: His-RUVBL1–RUVBL2 complex (human, UniProt Q9Y265;Q9Y230); experiment: pull-down
# Strep II-ECD = target: B3; experiment: pull-down
# 6xHis-AAR2-Strep II = target: B5; experiment: pull-down
# PRPF8-Flag = PRPF8-Flag (human, UniProt Q6P2Q9 1-2335); experiment: pull-down
# AAR2-His = target: B4; experiment: pull-down
# RUVBL2 [4] = target: T1, RUVBL2; experiment: cross-linking
# RUVBL1 [5] = target: T2, RUVBL1; experiment: cross-linking
binding result (RUVBL1–RUVBL2 complex),binding result (RUVBL2 [1]),binding result (RUVBL1 [2]),binding result (Strep II-ECD),binding result (PRPF8-Flag),Binder,also measured
binds,binds,binds,binds,,B1,binding result [3]: binds
,,,binds,binds,B2,binding result (6xHis-AAR2-Strep II): binds; binding result (AAR2-His): binds; binding result (RUVBL2 [4]): binds; binding result (RUVBL1 [5]): binds
binds,,,,binds,B3,
,,,binds,,B4,
binds,,,,,B5,
binds,binds,binds,,,B6,
